Assay results taken from US9976167B2, “Group of glycosyltransferases and use thereof” (Shanghai Institutes For Biological Sciences, Chinese …, priority 2012, dated 2018).

Key:
Type in all cases: biochemical
[1] = Glycosyltransfering activities on ginsengenins and saponins: glycosylation site and specificity (summary)
Method: More than 100 predicted cDNA sequences of glycosyltransferases were extracted from the published expression profile data of the Panax plant. 60 cDNAs with full length were cloned, expressed, and subjected to the analysis of glycosyltransfering reaction.
(§1) The lysate supernatant of the recombinant yeasts expressing the empty vector was used as control.
(§2) The reaction was conducted under 35° C. for 12 hrs, then stopped by adding 100 μL of butanol. The product were extracted, dried in vacuum, and dissolved in methanol.
(§3) The glycosyltransfering reactions of ginsenosides and ginsengenins were catalyzed by using the lysis supernatant of the recombinant yeasts expressing 3GT1, 3GT2, 3GT3 and 3GT4 as crude enzymes. The lysis supernatant of recombinant E. coli expressing empty vectors was used as control. The 100 μL reaction system is shown as Table 3. The reaction was conducted under 35° C. for 12 hrs, then stopped by adding 100 μL of butanol. The product were extracted, dried in vacuum, and dissolved in methanol.
(§4) The lysate supernatant of the recombinant yeast expressing empty vectors was used as control. The reaction was conducted under 35° C. for 12 hrs, and then stopped by adding 100 μL of butanol. The product were extracted, dried in vacuum, and dissolved in methanol.
(§5) The glycosyltransfering reactions of ginsenosides Rh2 and F2 were catalyzed by using the lysate supernatant of the recombinant yeasts expressing 3GT1, 3GT2, 3GT3 and 3GT4 as crude enzymes. The 100 μL reaction system is shown as Table 3. The reaction was conducted under 35° C. for 12 hrs, and then stopped by adding 100 μL of butanol. The product were extracted, dried in vacuum, and dissolved in methanol.

[2] = Glycosyltransfering reaction with crude enzyme, substrate Rh2; settings: crude enzyme: lysate supernatant of recombinant yeast; 35° C., 12 hrs; TLC
Method: as §1, §2
The reaction products were first detected by thin layer chromatography (TLC). […]
as §4, §5

[3] = Glycosyltransfering reaction with crude enzyme, substrate F2; settings: 35° C., 12 hrs, TLC; for extension of C3 of F2 by one more glycosyl (product Rd): crude enzyme: lysate supernatant of recombinant yeast; for extension of C3 glycosyl of F2 by one more glycosyl (product Rd): crude enzymes of Example 21 (E. coli expression products)
Method: (§6) According to the method as in Example 4, the cell lysate of recombinant yeasts expressing gGT13 and gGT30 were used to catalyze PPD and PPT.
as §4, §5

[4] = Glycosyltransfering reaction with crude enzyme, substrate CK; settings: 35° C., 12 hrs, TLC
Method: as §6, §3

[5] = Glycosyltransfering reaction with crude enzyme, substrate PPD; settings: UDP-glucose, 35° C., 12 hrs, TLC
Method: as §1, §2
(§7) The reaction products were first detected by thin layer chromatography (TLC).
(§8) The converted products of gGT25 were further identified by HPLC (FIG. 10 and FIG. 11). The retention time of peak 2 was identical to that of the CK standard sample; the retention time of peak 3 was identical to that of PPD. […] Peak 1, also present in the profile of the negative control, indicated its irrelevance to the conversion of PPD. 3 peaks were shown in FIG. 11, the retention time of peak 1 was identical to that of F1 standard sample and peak 3 was identical to that of PPT. […] Peak 2, also present in the profile of the negative control, indicated its irrelevance to the conversion of PPT.
as §6
The cell lysis supernatant of the recombinant E. coli was used as crude enzyme to conduct the glycosyltransfering reaction, and the reaction condition was identical to that of Example 4.
The reaction was conducted under 35° C. for 12 hrs. 100 μL of butanol was added to stop the reaction and the products were extracted. Upon vacuum drying, the product was dissolved by methanol. TLC was first used to detect the reaction product.
as §3
The reaction was conducted under 35° C. for 12 hrs, and then stopped by adding 100 μL of butanol. The product were extracted, dried in vacuum, and dissolved in methanol. The reaction products were first detected by thin layer chromatography (TLC) (FIG. 35).

[6] = Glycosyltransfering reaction with crude enzyme, substrate 25-OH-PPD; settings: 35° C., 12 hrs, TLC
Method: as §3

[7] = Glycosyltransfering reaction with crude enzyme, substrate DM; settings: crude enzyme: lysate supernatant of recombinant yeast; UDP-glucose, 35° C., 12 hrs; TLC
Method: as §1, §2, §7, §3

[8] = Glycosyltransfering reaction with crude enzyme, substrate PPT; settings: crude enzyme: lysate supernatant of recombinant yeast; UDP-glucose, 35° C., 12 hrs; TLC
Method: as §1, §2, §7, §8, §6, §3

[9] = Glycosyltransfering reaction with crude enzyme, substrate Rh2; settings: crude enzymes of Example 21 (E. coli expression products); 35° C., 12 hrs; TLC
[10] = Table 2, tetracyclic triterpenoid substrates
[11] = crude enzyme: lysate supernatant of recombinant E. coli, UDP-glucose

Molecule	glycosylation site: The first glycosyl at C-3 [1, 10]	extension of C3 of Rh2 by one more glycosyl (product Rg3) [2]	extension of C3 of F2 by one more glycosyl (product Rd) [3]	extension of C3 glycosyl of Rh2 by one more glycosyl (product Rg3) [9]	extension of C3 glycosyl of F2 by one more glycosyl (product Rd) [3]	other results
gGT29: glycosyltransferase protein with 442 amino acids, SEQ ID NO.: 26 (protein, Panax ginseng; gGT29) MDNQKGRISIALLPFLAHGHISPFFELAKQLAKRNCNVFLCSTPINLSSIKDKDSSASIKLVELHLPSSPDLPPHYHTTNGLPSHLMLPLRNAFETAGPTFSEILKTLNPDLLIYDFNPSWAPEIASSHNIPAVYFLTTAAASSSIGLHAFKNPGEKYPFPDFYDNSNITPEPPSADNMKLLHDFIACFERSCDIILIKSFRELEGKYIDLLSTLSDKTLVPVGPLVQDPMGHNEDPKTEQIINWLDKRAESTVVFVCFGSEYFLSNEELEEVAIGLEISTVNFIWAVRLIEGEKKGILPEGFVQRVGDRGLVVEGWAPQARILGHSSTGGFVSHCGWSSIAESMKFGVPVIAMARHLDQPLNGKLAAEVGVGMEVVRDENGKYKREGIAEVIRKVVVEKSGEVIRRKARELSEKMKEKGEQEIDRALEELVQICKKKKDEQ	✓	could be extended by one more glycosyl	could be extended by one more glycosyl	–	–	–
3GT4: glycosyltransferase protein with 458 amino acids, SEQ ID NO.: 43 (protein, Panax ginseng; 3GT4) MEREMLSKTHIMFIPFPAQGHMSPMMQFAKRLAWKGLRITIVLPAQIRDFMQITNPLINTECISFDFDKDDGMPYSMQAYMGVVKLKVTNKLSDLLEKQRTNGYPVNLLVVDSLYPSRVEMCHQLGVKGAPFFTHSCAVGAIYYNARLGKLKIPPEEGLTSVSLPSIPLLGRDDLPIIRTGTFPDLFEHLGNQFSDLDKADWIFFNTFDKLENEEAKWLSSQWPITSIGPLIPSMYLDKQLPNDKDNGINFYKADVGSCIKWLDAKDPGSVVYASFGSVKHNLGDDYMDEVAWGLLHSKYHFIWVVIESERTKLSSDFLAEAEAEEKGLIVSWCPQLQVLSHKSIGSFMTHCGWNSTVEALSLGVPMVALPQQFDQPANAKYIVDVWQIGVRVPIGEEGVVLRGEVANCIKDVMEGEIGDELRGNALKWKGLAVEAMEKGGSSDKNIDEFISKLVSS	–	–	–	–	–	glycosylation site: C-3 [1, 10]: ✓; substrate spectrum / specificity ([1]; comparison of 3GT1, 3GT2, 3GT3 and 3GT4, Table 6): best specificity; glycosylation of C3-OH of CK (product F2) ([4]; crude enzyme of Example 11): further glycosylating its C3-OH; substrate that could be catalyzed: CK [4, 11]: ✓; substrate that could be catalyzed: PPD ([5]; crude enzyme: lysate supernatant of recombinant E. coli): ✓; glycosylation of C3-OH of 25-OH-PPD (product 3-O-β-(D-glucopyranosyl)-25-OH-PPD) ([6]; crude enzyme of Example 11): could be glycosylated; substrate that could be catalyzed: 25-OH-PPD [6, 11]: ✓
gGT25-5: glycosyltransferase protein with 472 amino acids, SEQ ID NO.: 20 (protein, Panax ginseng; gGT25-5) MKSELIFVPVPAFGHLVGMVEMAKLFISRHENLSVTVLISKFFIDTGIDNYNKSLLAKPTPRLTIINLPEIDPQKYLLKPRCAIFPSLIENQKTHVRDVMSRMTQSESTRVVGLLADILFVDIFDIADEFNVPTYVYSPAGAGFLGLAFHLQTLNDDKKQDVTEFRNSDTELLVPSFANPVPAEFLPSIFLEKDGRHDVLLSLYWRCREAKGIIVNTFEELEPYAINSLRMDSMIPPIYPVGPILNLNGEGQNSDEAAVILGWLDDQPPSSVVFLCFGSFGSFPENQVKEIAMGLERSGHRFLWSLRPCISEGETTLQLKYSNLELPAGFLDRTSCVGKVIGWAPQMAILAHEAVGGFVSHCGWNSVLESVWYGMPVATWPMYGEQQLNAFEMVKELGLAVEIEVDYRNEYNKSDFIVKADEIETKIKKLMMDGKNSKIRKKVKEMKEKSRVAMSENGSSYTSLAKLFEEIM	–	–	–	–	–	glycosylation site: C6 [1, 10]: ✓; glycosylation of C20-OH of DM (product 20-O-β-(D-glucopyranosyl)-dammarendiol II) [7]: could not glycosylate the C20-OH; glycosylation of C20-OH of PPD (product CK) ([5]; crude enzyme: lysate supernatant of recombinant yeast): could not glycosylate the C20-OH; glycosylation of C6-OH of PPT (product Rg1 or Rh1) [8]: can only glycosylate C6-OH; glycosylation of C20-OH of PPT (product F1) [8]: could not glycosylate the C20-OH
gGT29-6: glycosyltransferase protein with 446 amino acids, SEQ ID NO.: 59 (protein, Panax ginseng; gGT29-6) MDNQKGRISIVMLPFLAHGHISPFFELAKHLSKRNCNIFLCSTPINLSSIKNRISDKDSSASIKLVELHLPSSPDLPPHYHTTNGLPSHLMVPLRNAFETAAPTFSEILKTLNPDLLIYDFNPSWAPEIASSHNIPAVYFLTTAAASSSIGLHAFKNPGEKYPFPDFYDNSNNTPEPPSADNMKLLHDFIACFERSCDIILIKSFIELEGKYIDLLSTLSDKTLVPVGPLVQDPMGHNEDPKTEQIINWLDKRAESTVVFVCFGSEYFLSNEELEEVAIGLEISMVNFIWAVRLIEGEKKGVLPEGFVQRVGDRGLVVEGWAPQARILGHSSTGGFVSHCGWSSIAESMKFGVPVIAMARHLDQPLNGKLAAEVGVGMEVVRDENGKYKREDIAGVIRKVVVEKSGEVIRRKARELSEKMKEIGEQLIDRAVEELVQICKKKKDEQ	✓	–	–	could be extended by one more glycosyl	could be extended by one more glycosyl	–
gGT29-4: glycosyltransferase protein with 446 amino acids, SEQ ID NO.: 55 (protein, Panax ginseng; gGT29-4) MDNQKGRISIALLPFLAHGHISPFFELAKHLSKRNCNIFLCSTPINLSSIKNRISDKDSSASIKLVELHLPSSPDLPPHYHTTNGLPSHLMVPLRNAFETAAPTFSEILKTLNPDLLIYDFNPSWAPEIASSHNIPAVCFIIGGAASFSMSLHSFKNPGEKYPFLDFDDNSNITPEPPSADNMKLLLDFMTCFERSCDIILIKSFRELEGKYFDFYSTLSDKTLVPVGPLVQDPMGHNEDPKTEQFINWLDKRAESTVVFVCFGSEYFLSNEELEEVAIGLEISMVNFIWAVRLIEGEKKGVLPEGFVQRVGDRGLVVEGWAPQARILGHSSTGGFVSHCGWSSITESMKFGVPVIAMARHLDQPLNGKLAAEVGVGMEVVRDENGKYKREGIAEVIRKVVVEKSGEVMRRKARELSEKMKEKGEEEIDRAVEELVQICKKKKDEQ	✓	–	–	could not be catalyzed	could be extended by one more glycosyl	–
gGT29-3: glycosyltransferase protein with 442 amino acids, SEQ ID NO.: 28 (protein, Panax ginseng; gGT29-3) MDNQEGRISIALLPFLAHGHISPFFELAKQLAKRNCNVFLCSTPINLSSIKNKDSSASIKLVELHLPSSPDLPPHYHTTNGLPSHLMVPLINAFETAGPTFSEILKTLNPDLLIYDFNPSWAPEIASSHNIPAVYFLTTAAASSSIGLHAFKNPGEKYPFPDFYDNSNNTPEPPSADNMKLLHDFIACFERSCDIILIKSFIELEGKYIDLLSTLSDKTLVPVGPLVQDPMGHNEDPKTEQIINWLDKRAESTVVFVCFGSEYFLSNEELEEVAIGLEISMVNFIWAVRLIEGEKKGVLPEGFVQRVGDRGLVVEGWAPQARILGHSSTGGFVSHCGWSSIAESMKFGVPVIAMARHLDQPLNGKLAAEVGVGMEVVRDENGKYKREGIAEVIRKVVVEKSGEVMRRKARELSEKMKEKGEEEIDRAVEELVQICKKKKDAQ	✓	could be extended by one more glycosyl	could be extended by one more glycosyl	–	–	–
